Source: article PMC8621939, “Cryo-EM Structure of Mechanosensitive Channel YnaI Using SMA2000: Challenges and Opportunities” (Membranes, 2021)

Biological target: the molecule itself
Assay: cryo-EM structure; single-particle cryo-EM of SMA2000-purified YnaI, Titan Krios 300 kV; 3D classification without symmetry, final refinement with C7 symmetry, 2.4 Å; NCMN Buffer E (40 mM HEPES pH 7.8, 100 mM NaCl, 0.1 mM TCEP)

B1: low-conductance mechanosensitive channel-like (YnaI), wild type (natural protein, Escherichia coli, UniProt P0AEB5 1-343, looked up)
chain: MIAELFTNNALNLVIIFGSCAALILMSFWFRRGNRKRKGFLFHAVQFLIYTIIISAVGSIINYVIENYKLKFITPGVIDFICTSLIAVILTIKLFLLINQFEKQQIKKGRDITSARIMSRIIKITIIVVLVLLYGEHFGMSLSGLLTFGGIGGLAVGMAGKDILSNFFSGIMLYFDRPFSIGDWIRSPDRNIEGTVAEIGWRITKITTFDNRPLYVPNSLFSSISVENPGRMTNRRITTTIGLRYEDAAKVGVIVEAVREMLKNHPAIDQRQTLLVYFNQFADSSLNIMVYCFTKTTVWAEWLAAQQDVYLKIIDIVQSHGADFAFPSQTLYMDNITPPEQGR
notes: YnaI, MscS-like mechanosensitive channel of Escherichia coli, 343 aa, wild type, full length; Homoheptamer in SMA2000 native lipid particles; Only TM4, TM5 and the cytoplasmic domain are resolved in the map; seven phosphatidylethanolamine molecules were modelled; Cloned in pRSFDuet-1; also called mechanosensitive-like YnaI channel; SMA2000-YnaI; source: E. coli BL21 (DE3) pLysS, extracted from …
stoichiometry N: 7
